Reference: patent US20070286859A1 (published 2007)
Where two headings read alike, the source gives them in different places.

How the values were obtained:
[1] = target: T1, extracellular region of human V158 FcγRIIIa with C-terminal 6xHis-tag and GST-tag (human, UniProt P08637 17-208); assay: AlphaScreen competition
[2] = target: T1, extracellular region of human V158 …; assay: SPR, receptor on chip
[3] = target: extracellular region of human F158 FcγRIIIa with C-terminal 6xHis-tag and GST-tag (human, UniProt P08637 17-208); assay: SPR, receptor on chip
[4] = target: T1, extracellular region of human V158 …; assay: AlphaScreen competition; remark: listed apart in the source
[5] = target: T1, extracellular region of human V158 …; assay: SPR, fold vs WT alemtuzumab
[6] = target: T1, extracellular region of human V158 …; assay: AlphaScreen competition, fold vs WT alemtuzumab
[7] = target: T1, extracellular region of human V158 …; assay: AlphaScreen competition; remark: listed apart in the source

Kd [2] [nM] | Kd [3] [nM] | Fold WT [5] [fold] | Binder | also measured
 |  |  | N297D/A330Y/I332E alemtuzumab (antibody) chain 1: QVQLQESGPGLVRPSQTLSLTCTVSGFTFTDFYMNWVRQPPGRGLEWIGFIRDKAKGYTTEYNPSVKGRVTMLVDTSKNQFSLRLSSVTAADTAVYYCAREGHTAAPFDYWGQGSLVTVSSASTKGPSVFPLAPSSKSTSGGTAALGCLVKDYFPEPVTVSWNSGALTSGVHTFPAVLQSSGLYSLSSVVTVPSSSLGTQTYICNVNHKPSNTKVDKKVEPKSCDKTHTCPPCPAPELLGGPSVFLFPPKPKDTLMISRTPEVTCVVVDVSHEDPEVKFNWYVDGVEVHNAKTKPREEQYDSTYRVVSVLTVLHQDWLNGKEYKCKVSNKALPYPEEKTISKAKGQPREPQVYTLPPSRDELTKNQVSLTCLVKGFYPSDIAVEWESNGQPENNYKTTPPVLDSDGSFFLYSKLTVDKSRWQQGNVFSCSVMHEALHNHYTQKSLSLSPGK chain 2: not shown | affinity as a fraction of glycosylated WT alemtuzumab [1]: 0.4 fold
 |  |  | S239D/N297D/I332E alemtuzumab (antibody) chain 1: QVQLQESGPGLVRPSQTLSLTCTVSGFTFTDFYMNWVRQPPGRGLEWIGFIRDKAKGYTTEYNPSVKGRVTMLVDTSKNQFSLRLSSVTAADTAVYYCAREGHTAAPFDYWGQGSLVTVSSASTKGPSVFPLAPSSKSTSGGTAALGCLVKDYFPEPVTVSWNSGALTSGVHTFPAVLQSSGLYSLSSVVTVPSSSLGTQTYICNVNHKPSNTKVDKKVEPKSCDKTHTCPPCPAPELLGGPDVFLFPPKPKDTLMISRTPEVTCVVVDVSHEDPEVKFNWYVDGVEVHNAKTKPREEQYDSTYRVVSVLTVLHQDWLNGKEYKCKVSNKALPAPEEKTISKAKGQPREPQVYTLPPSRDELTKNQVSLTCLVKGFYPSDIAVEWESNGQPENNYKTTPPVLDSDGSFFLYSKLTVDKSRWQQGNVFSCSVMHEALHNHYTQKSLSLSPGK chain 2: not shown | affinity as a fraction of glycosylated WT alemtuzumab [1]: 0.8 fold
39 | 156 |  | S298A/E333A/K334A alemtuzumab (antibody) chain 1: QVQLQESGPGLVRPSQTLSLTCTVSGFTFTDFYMNWVRQPPGRGLEWIGFIRDKAKGYTTEYNPSVKGRVTMLVDTSKNQFSLRLSSVTAADTAVYYCAREGHTAAPFDYWGQGSLVTVSSASTKGPSVFPLAPSSKSTSGGTAALGCLVKDYFPEPVTVSWNSGALTSGVHTFPAVLQSSGLYSLSSVVTVPSSSLGTQTYICNVNHKPSNTKVDKKVEPKSCDKTHTCPPCPAPELLGGPSVFLFPPKPKDTLMISRTPEVTCVVVDVSHEDPEVKFNWYVDGVEVHNAKTKPREEQYNATYRVVSVLTVLHQDWLNGKEYKCKVSNKALPAPIAATISKAKGQPREPQVYTLPPSRDELTKNQVSLTCLVKGFYPSDIAVEWESNGQPENNYKTTPPVLDSDGSFFLYSKLTVDKSRWQQGNVFSCSVMHEALHNHYTQKSLSLSPGK chain 2: not shown | 
64 |  |  | V264I alemtuzumab (antibody) chain 1: not shown chain 2: not shown | 
 |  |  | S239D alemtuzumab (antibody) chain 1: not shown chain 2: not shown | IC50 [4]: 0.8 nM
52 | 285 |  | S298A alemtuzumab (antibody) chain 1: not shown chain 2: not shown | 
 |  | 1.38 | E272R alemtuzumab (antibody) chain 1: not shown chain 2: not shown | 
 |  | 1.86 | T260H alemtuzumab (antibody) chain 1: not shown chain 2: not shown | Fold WT [6]: 1 fold
 |  | 2.31 | E283H alemtuzumab (antibody) chain 1: not shown chain 2: not shown | 
 |  | 12.8 | S304T alemtuzumab (antibody) chain 1: not shown chain 2: not shown | 
 |  | 1.51 | V284E alemtuzumab (antibody) chain 1: not shown chain 2: not shown | 
31 | 72 |  | I332E alemtuzumab (antibody) chain 1: not shown chain 2: not shown | 
17 | 52 |  | V264I/I332E alemtuzumab (antibody) chain 1: not shown chain 2: not shown | IC50 [7]: 0.5 nM
68 | 730 |  | WT alemtuzumab (antibody) chain 1: not shown chain 2: not shown | 
